How the values were obtained:
[1] = molecular target: T1, human flavin-containing monooxygenase 3 (hFMO3), wild type (Homo sapiens, UniProt P31513); test: ITC (supported by CD and DSC thermal shifts and trypsin protection); type: binding
T1 construct: gene FMO3
T1 sequence (P31513 2-532): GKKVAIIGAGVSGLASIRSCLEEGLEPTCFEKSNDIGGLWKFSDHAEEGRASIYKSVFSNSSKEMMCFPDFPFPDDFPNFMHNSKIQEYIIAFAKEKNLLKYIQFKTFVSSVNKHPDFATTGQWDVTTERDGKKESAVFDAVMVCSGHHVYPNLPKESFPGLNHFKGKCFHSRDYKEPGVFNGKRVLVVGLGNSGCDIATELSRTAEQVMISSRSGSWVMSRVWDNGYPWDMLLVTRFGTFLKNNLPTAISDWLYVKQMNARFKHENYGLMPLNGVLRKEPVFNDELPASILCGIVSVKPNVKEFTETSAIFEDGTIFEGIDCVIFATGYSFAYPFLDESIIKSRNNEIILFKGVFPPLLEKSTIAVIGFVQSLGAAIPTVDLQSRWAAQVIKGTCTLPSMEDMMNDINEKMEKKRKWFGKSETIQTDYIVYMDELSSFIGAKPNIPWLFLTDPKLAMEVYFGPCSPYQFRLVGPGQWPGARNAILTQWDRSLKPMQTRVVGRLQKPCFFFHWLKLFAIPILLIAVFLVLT

[2] = molecular target: T2, human flavin-containing monooxygenase 3 (hFMO3), N61S variant (Homo sapiens, UniProt P31513, N61S); test: stopped-flow anaerobic FAD reduction at […] nm, Kd from kobs vs [NADPH]; type: biochemical; settings: read-out: Reduction / K d,NADPH /
T2 construct: gene FMO3
T2 sequence (P31513 2-532 N61S): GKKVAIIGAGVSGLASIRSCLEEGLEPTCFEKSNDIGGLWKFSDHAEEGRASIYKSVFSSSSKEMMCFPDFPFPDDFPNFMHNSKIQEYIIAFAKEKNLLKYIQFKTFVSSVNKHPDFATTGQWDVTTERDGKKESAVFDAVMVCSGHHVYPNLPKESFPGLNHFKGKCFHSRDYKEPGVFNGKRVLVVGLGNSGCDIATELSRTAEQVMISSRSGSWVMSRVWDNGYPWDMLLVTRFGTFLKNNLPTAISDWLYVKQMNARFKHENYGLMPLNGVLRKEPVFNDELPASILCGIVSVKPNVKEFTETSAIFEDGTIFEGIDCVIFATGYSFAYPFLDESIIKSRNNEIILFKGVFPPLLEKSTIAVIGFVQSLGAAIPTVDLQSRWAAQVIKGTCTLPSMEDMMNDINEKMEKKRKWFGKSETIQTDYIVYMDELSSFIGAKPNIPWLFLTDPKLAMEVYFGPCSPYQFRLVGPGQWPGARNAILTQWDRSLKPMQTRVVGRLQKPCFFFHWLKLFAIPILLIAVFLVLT

[3] = molecular target: T1, human flavin-containing monooxygenase 3 (hFMO3), wild type; test: as above; type: biochemical; settings: read-out: Reduction / K d,NADPH /
purified protein [4] = substrate: Cn1cc[nH]c1=S; test: purified protein; settings: FAD, NADPH
purified protein [5] = substrate: CC/C(=C(\c1ccccc1)c1ccc(OCCN(C)C)cc1)c1ccccc1; test: purified protein; settings: FAD, NADPH
purified protein [6] = substrate: CN(C)CCCOc1nn(Cc2ccccc2)c2ccccc12; test: purified protein; settings: FAD, NADPH
purified protein [7] = substrate: CN(C)C; test: purified protein; type: biochemical, Homo sapiens; settings: FAD, NADPH

`NC(=O)c1ccc[n+]([C@@H]2O[C@H](COP(=O)(O)OP(=O)(O)OC[C@H]3O[C@@H](n4cnc5c(N)ncnc54)[C@H](OP(=O)(O)O)[C@@H]3O)[C@@H](O)[C@H]2O)c1` [NADP^+] was tested, and the Kd [1] was 3.7 µM.

Work on `NC(=O)C1=CN([C@@H]2O[C@H](COP(=O)(O)OP(=O)(O)OC[C@H]3O[C@@H](n4cnc5c(N)ncnc54)[C@H](OP(=O)(O)O)[C@@H]3O)[C@@H](O)[C@H]2O)C=CC1` [NADPH] yielded a Kd [2] of 51.8 µM and a Kd [3] of 300 nM.

B1: human flavin-containing monooxygenase 3 (hFMO3), N61S variant (Homo sapiens; N61S) (protein)
chain: GKKVAIIGAGVSGLASIRSCLEEGLEPTCFEKSNDIGGLWKFSDHAEEGRASIYKSVFSSSSKEMMCFPDFPFPDDFPNFMHNSKIQEYIIAFAKEKNLLKYIQFKTFVSSVNKHPDFATTGQWDVTTERDGKKESAVFDAVMVCSGHHVYPNLPKESFPGLNHFKGKCFHSRDYKEPGVFNGKRVLVVGLGNSGCDIATELSRTAEQVMISSRSGSWVMSRVWDNGYPWDMLLVTRFGTFLKNNLPTAISDWLYVKQMNARFKHENYGLMPLNGVLRKEPVFNDELPASILCGIVSVKPNVKEFTETSAIFEDGTIFEGIDCVIFATGYSFAYPFLDESIIKSRNNEIILFKGVFPPLLEKSTIAVIGFVQSLGAAIPTVDLQSRWAAQVIKGTCTLPSMEDMMNDINEKMEKKRKWFGKSETIQTDYIVYMDELSSFIGAKPNIPWLFLTDPKLAMEVYFGPCSPYQFRLVGPGQWPGARNAILTQWDRSLKPMQTRVVGRLQKPCFFFHWLKLFAIPILLIAVFLVLT
B1 showed a Km (purified protein [4]) of 8.6521 ± 0.3516 mM, a kcat (purified protein [4]) of 0.118 s⁻¹ and a kcat/Km (purified protein [4]) of 13.3 M⁻¹ s⁻¹. The Km (purified protein [5]) was 14.8 ± 3.4 µM, the kcat (purified protein [5]) was 0.00733 s⁻¹ and the kcat/Km (purified protein [5]) was 500 M⁻¹ s⁻¹. For the same molecule, the Km (purified protein [6]) was 417.3 ± 74.6 µM, the kcat (purified protein [6]) was 0.0333 s⁻¹ and the kcat/Km (purified protein [6]) was 83.3 M⁻¹ s⁻¹.

B2: human flavin-containing monooxygenase 3 (hFMO3), wild type (Homo sapiens) (protein)
chain: GKKVAIIGAGVSGLASIRSCLEEGLEPTCFEKSNDIGGLWKFSDHAEEGRASIYKSVFSNSSKEMMCFPDFPFPDDFPNFMHNSKIQEYIIAFAKEKNLLKYIQFKTFVSSVNKHPDFATTGQWDVTTERDGKKESAVFDAVMVCSGHHVYPNLPKESFPGLNHFKGKCFHSRDYKEPGVFNGKRVLVVGLGNSGCDIATELSRTAEQVMISSRSGSWVMSRVWDNGYPWDMLLVTRFGTFLKNNLPTAISDWLYVKQMNARFKHENYGLMPLNGVLRKEPVFNDELPASILCGIVSVKPNVKEFTETSAIFEDGTIFEGIDCVIFATGYSFAYPFLDESIIKSRNNEIILFKGVFPPLLEKSTIAVIGFVQSLGAAIPTVDLQSRWAAQVIKGTCTLPSMEDMMNDINEKMEKKRKWFGKSETIQTDYIVYMDELSSFIGAKPNIPWLFLTDPKLAMEVYFGPCSPYQFRLVGPGQWPGARNAILTQWDRSLKPMQTRVVGRLQKPCFFFHWLKLFAIPILLIAVFLVLT
B2 showed a Km (purified protein [7]) of 21.7 ± 4.6 µM, a kcat (purified protein [7]) of 0.045 ± 0.00333 s⁻¹ and a kcat/Km (purified protein [7]) of 2000 M⁻¹ s⁻¹. For the same molecule, the Km (purified protein [4]) was 0.0149 ± 0.002 mM, the kcat (purified protein [4]) was 0.14 s⁻¹ and the kcat/Km (purified protein [4]) was 9330 M⁻¹ s⁻¹.

From article PMC5676948, “Inactivation mechanism of N61S mutant of human FMO3 towards trimethylamine” (Scientific Reports, 2017)
